In this assay the target is T1, receptor-binding domain of the SARS-CoV-2 spike protein fused to the maltose-binding protein (SARS-CoV-2, wild-type (Wuhan-Hu-1 …, UniProt P0DTC2)).
T1 construct: also called MBP-RBD; RBD-MBP
As to the kind of experiment: BLI. The note with it: both partners purified.

B1: VHH72 nanobody (VHH)
VHH: QVQLQESGGGLVQAGGSLRLSCAASGRTFSEYAMGWFRQAPGKEREFVATISWSGGSTYYTDSVKGRFTISRDNAKNTVYLQMNSLKPDDTAVYYCAAAGLGTVVSEWDYDYDYWGQGTQVTVSS
notes: not shown: ecotin, N-terminal, cleaved; His-tag, N-terminal, cleaved
With B1, the binding result is listed as “binds”.
